Among the data in paper PMC12152508, “Altering 15‐Lipoxygenases to 18‐Lipoxygenases and Their Application to the Production of 5,18‐Dihydroxyeicosapentaenoic Acids” (Biotechnology and Bioengineering, 2025) are Km, kcat and kcat/Km values, retold here.

A word on the Km: it is the concentration of substrate that gives half-maximal velocity. The kcat is the number of substrate molecules converted per active site and unit of time at saturation. The kcat/Km is the turnover number divided by the Michaelis constant.

Substitutions are numbered along the chain they refer to. Names may count otherwise.

Substrate in data set [1]: CC/C=C\C/C=C\C/C=C\C/C=C\C/C=C\CCCC(=O)O
As to the kind of experiment: purified protein. The format is biochemical, Sorangium cellulosum. The conditions noted are these: 50 mM HEPES pH 8.0, 20°C.

Substrate in data set [2]: CC/C=C\C/C=C\C/C=C\C/C=C\C/C=C\CCCC(=O)O
In words: purified protein. It counts as biochemical, Archangium violaceum. The conditions noted are these: 50 mM HEPES pH 8.5, 20°C.

B1: 15R-LOX from Sorangium cellulosum (Sorangium cellulosum) (protein)
chain: MSNPSLPQNDSPAEQQQRKSELARAQQTYVYDHDTRLSPLGVAQSVPNGQGFAPILVGSAALVILDLVGNVVAKASKLVGSDGSLRSPKGAPLDDATSARIQGVLHDLKQRHRELTLVLTPLHGEPERAPAPPPRAPAVALVEGVAQKFVTTAENRAMESVLGATNLSTKNVGDIIKSLLDTLLSAAGKLLLDLVGMYGQATSVYDYVSEFQTFRLPEIASVYQDDAIFAWMRVAGPNPLVLKRVASPGASFPVTDAQYRSVMGEGDSLASAGKEGRLYLADYKALSQLVPGTAPDQQKYVEAPLALFAVPAAGAPSRLLRPVAIQCAQAPGAASPIFTPSDGVAWEVAKLHVQVADGNFHELISHLGQTHLVLEAFAMATPRQLAPEHPVNVLLTPHFQGTLAINNAAEADLIAPGGPVDNLLAGTIASSTQLAVDAVLSYSVNQQFLPVALAQRGVDDPSTLPSYPYRDDATLLWGAIHTWVSRYLAVYYTSDADVLGDYELQHWIAELSSPSGCGLKDIGEDGAIRTVAYLADLLTHVIFTASAQHAAVNFPQSSLMSFTPALPLAAYAPAPSITAGLPPSEIFQHLPPLQQALLQINVMMLLGGVYYSRLGDYDRNIPGAYFTDARVREPLEAFQRELMEIEATIGKRNLQRFPYVVLLPSQIPQSINI
B1: in the data set “purified protein [1]” (product 15R-HpEPE), the Km was determined as 41.9 µM, the kcat stood at 68 s⁻¹ and the specificity constant (kcat/Km) came out at 1.62e+06 M⁻¹ s⁻¹.

B2: 15R-LOX from Sorangium cellulosum (Sorangium cellulosum; L423W/L424M) (protein)
chain: B1 chain with L423W, L424M
notes: expressed from pET-28a(+) in E. coli C2566, His-Trap purified
On to B2, for which, in the data set “purified protein [1]” (products 15R- and 18R-HpEPEs), the Km is 43.3 µM, the kcat is 22.7 s⁻¹ and the catalytic efficiency (kcat/Km) was determined as 520000 M⁻¹ s⁻¹.

B3: 15R-LOX from Sorangium cellulosum (Sorangium cellulosum; L423W) (protein)
chain: B1 chain with L423W
notes: as for B2
For the protein B3, in “purified protein [1]” (products 15R- and 18R-HpEPEs), the Michaelis constant (Km) came out at 69.8 µM, the kcat amounted to 105 s⁻¹ and the specificity constant (kcat/Km) is 1.5e+06 M⁻¹ s⁻¹.

B4: 15R-LOX from Sorangium cellulosum (Sorangium cellulosum; L423W/L424M/L568M) (protein)
chain: B1 chain with L423W, L424M, L568M
notes: as for B2
With B4, in “purified protein [1]” (products 15R- and 18R-HpEPEs), the Km turned out to be 253.7 µM, the catalytic constant (kcat) turned out to be 90.8 s⁻¹ and the kcat/Km was 360000 M⁻¹ s⁻¹.

B5: 15S-LOX from Archangium violaceum (Archangium violaceum Cb vi76; L429W/L430M/L575M) (protein)
chain: MRSIPSLPQNDSPAQQELRLATLTQERQVYAYNFDSRLSPLGIAAQVPRQDNFSFVWLDGVATTGLQLLGNVLAIGAKLFDNGEAIQNDAGLSELELRRVEGTYRELTDGFSRLSDRTSRLHQAPRSPAVTLIADVIERPRTLLKAAGQKLEETAGVAIVSELATQAALDAPAIGQDILDLIDTLLKKLLSEAGDLFLKYLGLYGKAASLDNYTAQFSLLQPPSVASNYETDLIFARMRLAGPNPALLQGIAALPEKFPVTDAQYQSVMGSQDTLARAGQEGRLYLLDYAVFQGIPTGQTSGGQKYIEAPLALFAVPAANQADRKLRAVAIQCSQTPGRSNPIFTPADGTSWSLARLHVQVADGNYHELIAHLGLTHLILEEFTLSTHRQLAPQHPLYLLLTPHFQGTLAINNAAETSLIAPGGPVDQWMAGEIKASTQVSIQAVANQSINQSFLPRALAARGVDDASKLPDYPYRDDALLLWNDIRAWVSDYLAIYYNDDAAVRSDYELQAWVTELASPDAGKLKDVTEGGGGIQTFEYLVDLTTYIIFTASVQHAAVNFPQRTVMSYTPALPMAAYAPAPTSVEELPPSTELTHLPPLQMAFLQQAVTFGLGNVYFTRLGGYDTYLREPWFADARVWPALEVFQKRLRATEREIGQRNLSRIPYETLLPTAIPQSINI
notes: as for B2
Turning to B5, in the data set “purified protein [2]” (products 15S- and 18S-HpEPEs), the Michaelis-Menten constant (Km) was found to be 221.3 µM, the kcat stood at 118 s⁻¹ and the kcat/Km is 530000 M⁻¹ s⁻¹.

B6: 15S-LOX from Archangium violaceum (Archangium violaceum Cb vi76) (protein)
chain: B5 chain with W429L, M430L, M575L
notes: as for B2
With B6, in the data set “purified protein [2]” (product 15S-HpEPE), the Km turned out to be 40.7 µM, the kcat stood at 61.4 s⁻¹ and the kcat/Km was 1.51e+06 M⁻¹ s⁻¹.

B7: 15S-LOX from Archangium violaceum (Archangium violaceum Cb vi76; L429W/L430M) (protein)
chain: B5 chain with M575L
notes: as for B2
Turning to B7, in the data set “purified protein [2]” (products 15S- and 18S-HpEPEs), the Km was 57.2 µM, the kcat came out at 48.7 s⁻¹ and the kcat/Km was 850000 M⁻¹ s⁻¹.

B8: 15S-LOX from Archangium violaceum (Archangium violaceum Cb vi76; L429W) (protein)
chain: B5 chain with M430L, M575L
notes: as for B2
For B8, in “purified protein [2]” (products 15S- and 18S-HpEPEs), the Km was found to be 35.6 µM, the kcat worked out at 51.8 s⁻¹ and the kcat/Km came out at 1.45e+06 M⁻¹ s⁻¹.
